Assays:
Experiment in all cases: positional peptide library pulldown on immobilised Nb, LC-MS of supernatant; signal ratio to control GFP-Nb (1 = not captured, near 0 = captured)
[1] = target: T1, BC2T V7F
T1 construct: positional scanning library member
T1 peptide: Ac-PDRKAAFSHWQQ-NH2
Summary of the method: (§1)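 Unbound peptide left in supernatant after 1 h pulldown in PBS/0.01% CHAPS measured by reversed-phase LC-MS (8–30% eluent B gradient, 20 min).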

[2] = target: T2, BC2T K4W
T2 construct: positional scanning library member
T2 peptide: Ac-PDRWAAVSHWQQ-NH2
Summary of the method: as §1

[3] = target: T3, BC2T V7S
T3 construct: positional scanning library member
T3 peptide: Ac-PDRKAASSHWQQ-NH2
Summary of the method: as §1

[4] = target: T4, BC2T K4T
T4 construct: positional scanning library member
T4 peptide: Ac-PDRTAAVSHWQQ-NH2
Summary of the method: as §1

[5] = target: T5, BC2T A5T
T5 construct: positional scanning library member
T5 peptide: Ac-PDRKTAVSHWQQ-NH2
Summary of the method: as §1

[6] = target: T6, BC2T A6T
T6 construct: positional scanning library member
T6 peptide: Ac-PDRKATVSHWQQ-NH2
Summary of the method: as §1

[7] = target: T7, BC2T D2N
T7 construct: positional scanning library member
T7 peptide: Ac-PNRKAAVSHWQQ-NH2
Summary of the method: as §1

[8] = target: T8, BC2T A6N
T8 construct: positional scanning library member
T8 peptide: Ac-PDRKANVSHWQQ-NH2
Summary of the method: as §1

[9] = target: T9, BC2T P1Q
T9 construct: positional scanning library member
T9 peptide: Ac-QDRKAAVSHWQQ-NH2
Summary of the method: as §1

[10] = target: T10, BC2T P1Y
T10 construct: positional scanning library member
T10 peptide: Ac-YDRKAAVSHWQQ-NH2
Summary of the method: as §1

[11] = target: T11, BC2T R3Y
T11 construct: positional scanning library member
T11 peptide: Ac-PDYKAAVSHWQQ-NH2
Summary of the method: as §1

[12] = target: T12, BC2T K4C(Abu) (not fully specified (residue 4))
T12 construct: positional scanning library member
T12 peptide: Ac-PDRCAAVSHWQQ-NH2
Summary of the method: as §1

[13] = target: T13, BC2T K4P
T13 construct: positional scanning library member
T13 peptide: Ac-PDRPAAVSHWQQ-NH2
Summary of the method: as §1

[14] = target: T14, BC2T D2R
T14 construct: positional scanning library member
T14 peptide: Ac-PRRKAAVSHWQQ-NH2
Summary of the method: as §1

[15] = target: T15, BC2T K4R
T15 construct: positional scanning library member
T15 peptide: Ac-PDRRAAVSHWQQ-NH2
Summary of the method: as §1

[16] = target: T16, BC2T D2H
T16 construct: positional scanning library member
T16 peptide: Ac-PHRKAAVSHWQQ-NH2
Summary of the method: as §1

[17] = target: T17, BC2T A6H
T17 construct: positional scanning library member
T17 peptide: Ac-PDRKAHVSHWQQ-NH2
Summary of the method: as §1

[18] = target: T18, BC2T K4D
T18 construct: positional scanning library member
T18 peptide: Ac-PDRDAAVSHWQQ-NH2
Summary of the method: as §1

[19] = target: T19, BC2T W10D
T19 construct: positional scanning library member
T19 peptide: Ac-PDRKAAVSHDQQ-NH2
Summary of the method: as §1

[20] = target: T20, BC2T Q11D
T20 construct: positional scanning library member
T20 peptide: Ac-PDRKAAVSHWDQ-NH2
Summary of the method: as §1

[21] = target: T21, BC2T S8E
T21 construct: positional scanning library member
T21 peptide: Ac-PDRKAAVEHWQQ-NH2
Summary of the method: as §1

[22] = target: T22, BC2T W10E
T22 construct: positional scanning library member
T22 peptide: Ac-PDRKAAVSHEQQ-NH2
Summary of the method: as §1

B1: BC2-NbR106E (VHH)
VHH: QVQLVESGGGLVQPGGSLTLSCTASGFTLDHYDIGWFRQAPGKEREGVSCINNSDDDTYYADSVKGRFTIFMDNAKDTVYLQMNSLKPEDTAIYYCAEARGCKRGEYEYDFWGQGTQVTVSS
notes: headlock mutant of BC2-Nb; immobilised on beads in this assay
For B1, the ratio [1] was 0.2, the ratio [2] was 0.7 and the ratio [3] was 0.3. The ratio [4] was 0.5, the ratio [5] was 0.1 and the ratio [6] was 0.3. It also gave a ratio [7] of 0.2, a ratio [8] of 1 and a ratio [9] of 0.6. For the same binder, the ratio [10] was 0.2, the ratio [11] was 0.9 and the ratio [12] was 0.2. It also gave a ratio [13] of 1, a ratio [14] of 0.1 and a ratio [15] of 0.1. It also gave a ratio [16] of 0.1, a ratio [17] of 1 and a ratio [18] of 1.

B2: BC2 nanobody (VHH)
VHH: QVQLVESGGGLVQPGGSLTLSCTASGFTLDHYDIGWFRQAPGKEREGVSCINNSDDDTYYADSVKGRFTIFMDNAKDTVYLQMNSLKPEDTAIYYCAEARGCKRGRYEYDFWGQGTQVTVSS
notes: immobilised on beads in this assay; also called BC2-Nb; BC2 nanotrap (immobilised)
In the case of B2, the ratio [19] is reported as 1, the ratio [20] is reported as 0.2 and the ratio [21] is reported as 0.7. For the same binder, the ratio [22] was 1.1.

— US20170137467A1 (CHROMOTEK, published 2017)
